B1: Nuclear receptor subfamily 0 group B member 2 (Homo sapiens), Q15466 (parent)
chain: MSTSQPGACPCQGAASRPAILYALLSSSLKAVPRPRSRCLCRQHRPVQLCAPHRTCREALDVLAKTVAFLRNLPSFWQLPPQDQRRLLQGCWGPLFLLGLAQDAVTFEVAEAPVPSILKKILLEEPSSSGGSGQLPDRPQPSLAAVQWLQCCLESFWSLELSPKEYACLKGTILFNPDVPGLQAASHIGHLQQEAHWVLCEVLEPWCPAAQGRLTRVLLTASTLKSIPTSLLGDLFFRPIIGDVDIAGLLGDMLLLR

The variants in one test derive from B1. Particulars: with mdm2_human MDM2, Q00987.
mdm2_human MDM2, Q00987, sequence (Q00987 whole entry, looked up): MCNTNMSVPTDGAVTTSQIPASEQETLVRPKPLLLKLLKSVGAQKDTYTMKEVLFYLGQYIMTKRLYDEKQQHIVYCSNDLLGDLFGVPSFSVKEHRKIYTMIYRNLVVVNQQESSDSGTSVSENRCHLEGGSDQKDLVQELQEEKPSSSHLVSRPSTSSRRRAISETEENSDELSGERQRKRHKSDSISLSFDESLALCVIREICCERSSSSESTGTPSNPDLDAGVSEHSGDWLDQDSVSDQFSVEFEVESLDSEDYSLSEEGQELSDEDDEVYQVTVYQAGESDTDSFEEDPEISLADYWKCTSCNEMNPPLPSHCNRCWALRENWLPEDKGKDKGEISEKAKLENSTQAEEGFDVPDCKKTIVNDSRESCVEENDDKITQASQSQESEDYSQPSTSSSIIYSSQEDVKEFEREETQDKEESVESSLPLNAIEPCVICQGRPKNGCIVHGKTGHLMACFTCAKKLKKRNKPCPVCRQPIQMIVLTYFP
Turning to MSTSQPGACPCQGAASRPAILYALLSSSLKAVPRPRSRCLCRQHRPVQLCAPHRTCREALDVLAKTVAFLRNLPSFWQLPPQDQRRLLQGCWGPLFLLGLAQDAVTFEVAEAPVPSILKKILLEEPSSSGGSGQLPDRPQPSLAAVQWLQCCLESFWSLELSPKEYACLNGTILFNPDVPGLQAASHIGHLQQEAHWVLCEVLEPWCPAAQGRLTRVLLTASTLKSIPTSLLGDLFFRPIIGDVDIAGLLGDMLLLR [K170N], the “effect of a mutation on the interaction” value is reported as “increasing interaction”.

In a further test the parent is B1. The settings on record: with mdm2_human MDM2, Q00987. This is another data set of the same source.
MSTSQPGACPCQGAASRPAILYALLSSSLKAVPRPRSRCLCRQHRPVQLCAPHRTCREALDVLAKTVAFLRNLPSFWQLPPQDQRRLLQGCWGPLFLLGLAQDAVTFEVAEAPVPSILKKILLEEPSSSGGSGQLPDRPQPSLAAVQWLQCCLESFWSLELSPKEYACLRGTILFNPDVPGLQAASHIGHLQQEAHWVLCEVLEPWCPAAQGRLTRVLLTASTLKSIPTSLLGDLFFRPIIGDVDIAGLLGDMLLLR [K170R]: the “effect of a mutation on the interaction” value was “disrupting interaction”.

(Values after IntAct's records for PubMed 22575647.)
